Assay results reported in article PMC6422423, “Constitutively active BRS3 is a genuinely orphan GPCR in placental mammals” (PLoS Biology, 2019).
Where no end group is shown, it is not given here.

Experiments:
[1] = target: turtle bombesin receptor subtype-3 (turtle (Chrysemys picta)); assay: radioligand binding; displacement of 50 pM [125I]-Tyr-NMB by unlabeled peptide on disaggregated transfected HEK293 cells; 1 h at 21°C; 24.5 mM HEPES pH 7.4, 98 mM NaCl; bound tracer separated by centrifugation
[2] = target: chicken bombesin receptor subtype-3 (chicken (Gallus gallus)); assay: as above
[3] = target: spotted gar bombesin receptor subtype-3 (spotted gar (Lepisosteus oculatus)); assay: as above
[4] = target: turtle bombesin receptor subtype-3 (turtle (Chrysemys picta)); assay: radioligand binding; displacement of 50 pM [125I]-Tyr42-GRP by unlabeled peptide on disaggregated transfected HEK293 cells; 1 h at 21°C; 24.5 mM HEPES pH 7.4, 98 mM NaCl; bound tracer separated by centrifugation
[5] = target: chicken bombesin receptor subtype-3 (chicken (Gallus gallus)); assay: as above
[6] = target: spotted gar bombesin receptor subtype-3 (spotted gar (Lepisosteus oculatus)); assay: as above
[7] = target: aardvark bombesin receptor subtype-3 (aardvark (Orycteropus afer)); assay: as above
Chain of aardvark bombesin receptor subtype-3 (aardvark (Orycteropus afer)) (P32247 other isoform, or with tags, fused parts or gaps): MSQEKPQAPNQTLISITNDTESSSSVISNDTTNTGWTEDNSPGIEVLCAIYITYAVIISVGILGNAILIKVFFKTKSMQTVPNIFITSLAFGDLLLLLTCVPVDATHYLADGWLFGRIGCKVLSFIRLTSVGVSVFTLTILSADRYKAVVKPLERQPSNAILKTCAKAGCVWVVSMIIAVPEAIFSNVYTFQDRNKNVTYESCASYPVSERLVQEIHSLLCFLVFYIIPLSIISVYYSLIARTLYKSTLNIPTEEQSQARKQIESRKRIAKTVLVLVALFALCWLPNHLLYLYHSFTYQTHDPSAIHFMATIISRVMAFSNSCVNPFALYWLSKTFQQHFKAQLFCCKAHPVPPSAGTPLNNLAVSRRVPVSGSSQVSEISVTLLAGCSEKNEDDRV

Chain of spotted gar bombesin receptor subtype-3 (spotted gar (Lepisosteus oculatus)) (main, as listed by the source): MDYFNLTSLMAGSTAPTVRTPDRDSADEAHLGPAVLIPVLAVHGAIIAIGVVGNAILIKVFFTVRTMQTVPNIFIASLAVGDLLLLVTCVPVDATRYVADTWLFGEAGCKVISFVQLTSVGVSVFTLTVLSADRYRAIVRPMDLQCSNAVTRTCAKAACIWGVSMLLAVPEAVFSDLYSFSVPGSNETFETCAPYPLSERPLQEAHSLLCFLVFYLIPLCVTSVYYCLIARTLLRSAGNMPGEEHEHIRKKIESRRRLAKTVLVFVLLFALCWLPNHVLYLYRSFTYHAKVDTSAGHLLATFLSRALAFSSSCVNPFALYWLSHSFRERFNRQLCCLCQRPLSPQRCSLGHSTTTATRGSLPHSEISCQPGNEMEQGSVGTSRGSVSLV
Chain of turtle bombesin receptor subtype-3 (turtle (Chrysemys picta)) (main, as listed by the source): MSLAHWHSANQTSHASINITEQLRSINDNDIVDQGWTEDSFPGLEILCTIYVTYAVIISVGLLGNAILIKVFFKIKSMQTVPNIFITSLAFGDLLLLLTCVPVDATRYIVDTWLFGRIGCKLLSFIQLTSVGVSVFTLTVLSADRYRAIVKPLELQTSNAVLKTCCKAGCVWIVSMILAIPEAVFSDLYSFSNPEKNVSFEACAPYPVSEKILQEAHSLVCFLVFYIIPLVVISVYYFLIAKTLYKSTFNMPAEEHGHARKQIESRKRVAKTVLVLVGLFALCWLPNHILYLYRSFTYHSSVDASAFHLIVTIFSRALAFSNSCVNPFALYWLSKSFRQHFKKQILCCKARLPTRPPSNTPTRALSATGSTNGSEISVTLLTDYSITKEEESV

- IC50 [1]: 0.28 nM
- IC50 [2]: 0.18 nM
- IC50 [3]: 0.54 nM
- IC50 [4]: 0.14 nM
- IC50 [5]: 0.15 nM
- IC50 [6]: 0.17 nM
- Ki [7]: > 1000 nM
Binder: APLQPGGSPALTKIYPRGSHWAVGHLM (ends and bridges not checked) [gastrin-releasing peptide, unlabeled ligand peptide of the radioligand binding assays]
